In US20230212549A1 (3B PHARMACEUTICALS, published 2023):
Where “and” joins values, the source holds several entries; their conditions need not be identical. Equal entries are not always repeated. Numbered stars: 1 amine (or outer) side, 2 acyl side, 3 side chain; on linkers, the order of the positions; unused ones are H or OH. Bridge positions count the residues as written; N and C are the ends. Square brackets hold non-standard residues; d marks the D form. Primed or numbered codes have the meaning given here. Side chains are listed from the residue outwards. * marks the point of attachment. Ttds″ = 1,13-diamino-4,7,10-trioxatridecan-succinamic acid spacer, O=C(CCC(=O)[*:2])NCCCOCCOCCOCCCN[*:1]; TBMB(SCH2CH2NH-DOTA) = O=C(O)CN1CCN(CC(=O)O)CCN(CC(=O)NCCSCc2cc(C[*:1])cc(C[*:2])c2)CCN(CC(=O)O)CC1; Ttds = 1,13-diamino-4,7,10-trioxatridecan-succinamic acid, O=C(CCC(=O)[*:2])NCCCOCCOCCOCCCN[*:1]; DOTA = O=C(O)CN1CCN(CC(=O)O)CCN(CC(=O)*)CCN(CC(=O)O)CC1; Biotin = O=C1N[C@H]2[C@H](CS[C@H]2CCCCC(=O)*)N1; Bip = N[C@@H](Cc1ccc(-c2ccccc2)cc1)C(=O)O; Met(O2) = CS(=O)(=O)CC[C@H](N)C(=O)O; mXylylene = c1cc(C[*:1])cc(C[*:2])c1; Pentanesulfonyl = CCCCCS(=O)(=O)*; NMeE = CN[C@@H](CCC(=O)O)C(=O)O; 3Amb = NCc1cccc(C(=O)O)c1; 4Amb = NCc1ccc(C(=O)O)cc1; DOTA′ = not defined here; Nle = CCCC[C@H](N)C(=O)O; Nphe = O=C(O)CNCc1ccccc1; Apr = not defined here; Hexanoyl = CCCCCC(=O)*; AEEA = NCCOCCOCC(=O)O; Sar = CNCC(=O)O

Experiments:
[1] = target: T1, fibroblast activation protein (FAP) on FAP-expressing human WI-38 fibroblasts (human, UniProt Q12884 1-760); test: competitive FACS, WI-38 cells, vs Cy5 tracer m3; A = pIC50 >8.0
T1 construct: also called human FAP

[2] = target: Recombinant human FAP (R&D systems, #3715-SE) (human, UniProt Q12884 26-760); test: cell-based or functional assay

Row | Binder | pIC50 Category (FACS) [1] [pIC50] | pIC50 Category (Activity) [2]
1 | Hexanoyl-CPPTEFCD[3Amb]R-NH2 (linker 1-7 via mXylylene; SMILES CCCCCC(=O)N[C@H]1CSCc2cccc(c2)CSC[C@@H](C(=O)N[C@@H](CC(=O)O)C(=O)NCc2cccc(C(=O)N[C@@H](CCCNC(=N)N)C(N)=O)c2)NC(=O)[C@H](Cc2ccccc2)NC(=O)[C@H](CCC(=O)O)NC(=O)[C@H]([C@@H](C)O)NC(=O)[C@@H]2CCCN2C(=O)[C@@H]2CCCN2C1=O, also called 3BP-3324) [Hex-[Cys(3MeBn)-Pro-Pro-Thr-Glu-Phe-Cys]-Asp-Mamb-Arg-NH2] | > 8 | > 8 pIC50
2 | Hexanoyl-CPPTAFC-NH2 (linker 1-7 via mXylylene; SMILES CCCCCC(=O)N[C@H]1CSCc2cccc(c2)CSC[C@@H](C(N)=O)NC(=O)[C@H](Cc2ccccc2)NC(=O)[C@H](C)NC(=O)[C@H]([C@@H](C)O)NC(=O)[C@@H]2CCCN2C(=O)[C@@H]2CCCN2C1=O) [Hex-[Cys(3MeBn)-Pro-Pro-Thr-Ala-Phe-Cys]-NH2] | – | ≤ 6 pIC50
3 | CPPTQFX (not fully specified; N-term Hex; X7 = AET (2-aminoethanethiol, no carboxyl group); Cys1/AET7 thioether-bridged by tMeBn carrying DOTA-AET, also called 3BP-3654) [Hex-[Cys(tMeBn(DOTA-AET))-Pro-Pro-Thr-Gln-Phe-AET]] | > 8 | > 8 pIC50
4 | Hexanoyl-CPPTE[Bip]C-NH2 (linker 1-7 via mXylylene; SMILES CCCCCC(=O)N[C@H]1CSCc2cccc(c2)CSC[C@@H](C(N)=O)NC(=O)[C@H](Cc2ccc(-c3ccccc3)cc2)NC(=O)[C@H](CCC(=O)O)NC(=O)[C@H]([C@@H](C)O)NC(=O)[C@@H]2CCCN2C(=O)[C@@H]2CCCN2C1=O) [Hex-[Cys(3MeBn)-Pro-Pro-Thr-Glu-Bip-Cys]-NH2] | – | ≤ 6 pIC50
5 | Hexanoyl-CPPTE([Apr-AEEA-DOTA′])FCD-NH2 (linker 1-7 via mXylylene; reading uncertain; also: printed as Hex-[Cys(3MeBn)-Pro-Pro-Thr-Glu(NH-Apr-O2Oc-DOTA′)-Phe-Cys]-Asp-NH2) [Hex-[Cys(3MeBn)-Pro-Pro-Thr-Glu(NH-Apr-O2Oc-DOTA′)-Phe-Cys]-Asp-NH2] | – | 6.1 pIC50 and 7 pIC50
6 | Hexanoyl-CPPTEFCD-NH2 (linker 1-7 via mXylylene; SMILES CCCCCC(=O)N[C@H]1CSCc2cccc(c2)CSC[C@@H](C(=O)N[C@@H](CC(=O)O)C(N)=O)NC(=O)[C@H](Cc2ccccc2)NC(=O)[C@H](CCC(=O)O)NC(=O)[C@H]([C@@H](C)O)NC(=O)[C@@H]2CCCN2C(=O)[C@@H]2CCCN2C1=O) [Hex-[Cys(3MeBn)-Pro-Pro-Thr-Glu-Phe-Cys]-Asp-NH2] | – | > 8 pIC50
7 | Hexanoyl-CPPTE[Nphe]C-NH2 (linker 1-7 via mXylylene; SMILES CCCCCC(=O)N[C@H]1CSCc2cccc(c2)CSC[C@@H](C(N)=O)NC(=O)CN(Cc2ccccc2)C(=O)[C@H](CCC(=O)O)NC(=O)[C@H]([C@@H](C)O)NC(=O)[C@@H]2CCCN2C(=O)[C@@H]2CCCN2C1=O) [Hex-[Cys(3MeBn)-Pro-Pro-Thr-Glu-Nphe-Cys]-NH2] | – | ≤ 6 pIC50
8 | {DOTA}-[Ttds][Nle]CPPTQFCD-NH2 (linker 3-9 via mXylylene; SMILES CCCC[C@H](NC(=O)CCC(=O)NCCCOCCOCCOCCCNC(=O)CN1CCN(CC(=O)O)CCN(CC(=O)O)CCN(CC(=O)O)CC1)C(=O)N[C@H]1CSCc2cccc(c2)CSC[C@@H](C(=O)N[C@@H](CC(=O)O)C(N)=O)NC(=O)[C@H](Cc2ccccc2)NC(=O)[C@H](CCC(N)=O)NC(=O)[C@H]([C@@H](C)O)NC(=O)[C@@H]2CCCN2C(=O)[C@@H]2CCCN2C1=O, also called 3BP-3401) [DOTA-Ttds-Nle-[Cys(3MeBn)-Pro-Pro-Thr-Gln-Phe-Cys]-Asp-NH2] | > 8 | > 8 pIC50
9 | Hexanoyl-CAPTEFC-NH2 (linker 1-7 via mXylylene; SMILES CCCCCC(=O)N[C@H]1CSCc2cccc(c2)CSC[C@@H](C(N)=O)NC(=O)[C@H](Cc2ccccc2)NC(=O)[C@H](CCC(=O)O)NC(=O)[C@H]([C@@H](C)O)NC(=O)[C@@H]2CCCN2C(=O)[C@H](C)NC1=O) [Hex-[Cys(3MeBn)-Ala-Pro-Thr-Glu-Phe-Cys]-NH2] | – | 6.1 pIC50 and 7 pIC50
10 | Hexanoyl-CPPTEAC-NH2 (linker 1-7 via mXylylene; SMILES CCCCCC(=O)N[C@H]1CSCc2cccc(c2)CSC[C@@H](C(N)=O)NC(=O)[C@H](C)NC(=O)[C@H](CCC(=O)O)NC(=O)[C@H]([C@@H](C)O)NC(=O)[C@@H]2CCCN2C(=O)[C@@H]2CCCN2C1=O) [Hex-[Cys(3MeBn)-Pro-Pro-Thr-Glu-Ala-Cys]-NH2] | – | 6.1 pIC50 and 7 pIC50
11 | Hexanoyl-CPPTEFC-NH2 (linker 1-7 via TBMB(SCH2CH2NH-DOTA); SMILES CCCCCC(=O)N[C@H]1CSCc2cc(CSCCNC(=O)CN3CCN(CC(=O)O)CCN(CC(=O)O)CCN(CC(=O)O)CC3)cc(c2)CSC[C@@H](C(N)=O)NC(=O)[C@H](Cc2ccccc2)NC(=O)[C@H](CCC(=O)O)NC(=O)[C@H]([C@@H](C)O)NC(=O)[C@@H]2CCCN2C(=O)[C@@H]2CCCN2C1=O, also called 3BP-3653) [Hex-[Cys(tMeBn(DOTA-AET))-Pro-Pro-Thr-Glu-Phe-Cys]-NH2] | > 8 | > 8 pIC50
12 | Pentanesulfonyl-CPPTEFC-OH (linker 1-7 via TBMB(SCH2CH2NH-DOTA); SMILES CCCCCS(=O)(=O)N[C@H]1CSCc2cc(CSCCNC(=O)CN3CCN(CC(=O)O)CCN(CC(=O)O)CCN(CC(=O)O)CC3)cc(c2)CSC[C@@H](C(=O)O)NC(=O)[C@H](Cc2ccccc2)NC(=O)[C@H](CCC(=O)O)NC(=O)[C@H]([C@@H](C)O)NC(=O)[C@@H]2CCCN2C(=O)[C@@H]2CCCN2C1=O, also called 3BP-3691) [Pentyl-SO2-[Cys(tMeBn(DOTA-AET))-Pro-Pro-Thr-Glu-Phe-Cys]-OH] | > 8 | 7.1 pIC50 and 8 pIC50
13 | Hexanoyl-CPPT[NMeE]FC-NH2 (linker 1-7 via mXylylene; SMILES CCCCCC(=O)N[C@H]1CSCc2cccc(c2)CSC[C@@H](C(N)=O)NC(=O)[C@H](Cc2ccccc2)NC(=O)[C@H](CCC(=O)O)N(C)C(=O)[C@H]([C@@H](C)O)NC(=O)[C@@H]2CCCN2C(=O)[C@@H]2CCCN2C1=O) [Hex-[Cys(3MeBn)-Pro-Pro-Thr-Nme-Phe-Cys]-NH2] | – | ≤ 6 pIC50
14 | Hexanoyl-CPPTE([Apr-DOTA′])FCD-NH2 (linker 1-7 via mXylylene; reading uncertain; also: printed as Hex-[Cys(3MeBn)-Pro-Pro-Thr-Glu(NH-Apr-DOTA′)-Phe-Cys]-Asp-NH2) [Hex-[Cys(3MeBn)-Pro-Pro-Thr-Glu(NH-Apr-DOTA′)-Phe-Cys]-Asp-NH2] | – | ≤ 6 pIC50
15 | Hexanoyl-C[Sar]PTQFC-OH (linker 1-7 via TBMB(SCH2CH2NH-DOTA); SMILES CCCCCC(=O)N[C@H]1CSCc2cc(CSCCNC(=O)CN3CCN(CC(=O)O)CCN(CC(=O)O)CCN(CC(=O)O)CC3)cc(c2)CSC[C@@H](C(=O)O)NC(=O)[C@H](Cc2ccccc2)NC(=O)[C@H](CCC(N)=O)NC(=O)[C@H]([C@@H](C)O)NC(=O)[C@@H]2CCCN2C(=O)CN(C)C1=O, also called 3BP-3678) [Hex-[Cys(tMeBn(DOTA-AET))-Nmg-Pro-Thr-Gln-Phe-Cys]-OH] | > 8 | > 8 pIC50
16 | Hexanoyl-CPPTQXC-OH (linker 1-7 via TBMB(SCH2CH2NH-DOTA); not fully specified (residue 6); printed as Hex-[Cys(tMeBn(DOTA-AET))-Pro-Pro-Thr-Gln-Mpa-Cys]-OH, also called 3BP-3664) [Hex-[Cys(tMeBn(DOTA-AET))-Pro-Pro-Thr-Gln-Mpa-Cys]-OH] | > 8 | > 8 pIC50
17 | Hexanoyl-CPPT[Met(O2)]FC-NH2 (linker 1-7 via mXylylene; SMILES CCCCCC(=O)N[C@H]1CSCc2cccc(c2)CSC[C@@H](C(N)=O)NC(=O)[C@H](Cc2ccccc2)NC(=O)[C@H](CCS(C)(=O)=O)NC(=O)[C@H]([C@@H](C)O)NC(=O)[C@@H]2CCCN2C(=O)[C@@H]2CCCN2C1=O) [Hex-[Cys(3MeBn)-Pro-Pro-Thr-Moo-Phe-Cys]-NH2] | – | ≤ 6 pIC50
18 | H-MCPPTEFCDHFRD[Ttds″]K(Biotin)-NH2 (linker 2-8 via mXylylene; SMILES CSCC[C@H](N)C(=O)N[C@H]1CSCc2cccc(c2)CSC[C@@H](C(=O)N[C@@H](CC(=O)O)C(=O)N[C@@H](Cc2c[nH]cn2)C(=O)N[C@@H](Cc2ccccc2)C(=O)N[C@@H](CCCNC(=N)N)C(=O)N[C@@H](CC(=O)O)C(=O)NCCCOCCOCCOCCCNC(=O)CCC(=O)N[C@@H](CCCCNC(=O)CCCC[C@@H]2SC[C@@H]3NC(=O)N[C@@H]32)C(N)=O)NC(=O)[C@H](Cc2ccccc2)NC(=O)[C@H](CCC(=O)O)NC(=O)[C@H]([C@@H](C)O)NC(=O)[C@@H]2CCCN2C(=O)[C@@H]2CCCN2C1=O, also called 3BP-2881) [H-Met-[Cys(3MeBn)-Pro-Pro-Thr-Glu-Phe-Cys]-Asp-His-Phe-Arg-Asp-Ttds-Lys(Bio)-NH2] | > 8 | > 8 pIC50
19 | {DOTA}-[Ttds][Nle]CPPTEFCD[4Amb]R-NH2 (linker 3-9 via mXylylene; SMILES CCCC[C@H](NC(=O)CCC(=O)NCCCOCCOCCOCCCNC(=O)CN1CCN(CC(=O)O)CCN(CC(=O)O)CCN(CC(=O)O)CC1)C(=O)N[C@H]1CSCc2cccc(c2)CSC[C@@H](C(=O)N[C@@H](CC(=O)O)C(=O)NCc2ccc(C(=O)N[C@@H](CCCNC(=N)N)C(N)=O)cc2)NC(=O)[C@H](Cc2ccccc2)NC(=O)[C@H](CCC(=O)O)NC(=O)[C@H]([C@@H](C)O)NC(=O)[C@@H]2CCCN2C(=O)[C@@H]2CCCN2C1=O, also called 3BP-3321) [DOTA-Ttds-Nle-[Cys(3MeBn)-Pro-Pro-Thr-Glu-Phe-Cys]-Asp-Pamb-Arg-NH2] | > 8 | > 8 pIC50
20 | Hexanoyl-CPPAEFC-NH2 (linker 1-7 via mXylylene; SMILES CCCCCC(=O)N[C@H]1CSCc2cccc(c2)CSC[C@@H](C(N)=O)NC(=O)[C@H](Cc2ccccc2)NC(=O)[C@H](CCC(=O)O)NC(=O)[C@H](C)NC(=O)[C@@H]2CCCN2C(=O)[C@@H]2CCCN2C1=O) [Hex-[Cys(3MeBn)-Pro-Pro-Ala-Glu-Phe-Cys]-NH2] | – | ≤ 6 pIC50
